T1: human B7H4 expressed on CHO cells (human, UniProt Q7Z7D3 25-282)
T1 construct: whole, on cells; also called VCTN1
T1 sequence (looked up): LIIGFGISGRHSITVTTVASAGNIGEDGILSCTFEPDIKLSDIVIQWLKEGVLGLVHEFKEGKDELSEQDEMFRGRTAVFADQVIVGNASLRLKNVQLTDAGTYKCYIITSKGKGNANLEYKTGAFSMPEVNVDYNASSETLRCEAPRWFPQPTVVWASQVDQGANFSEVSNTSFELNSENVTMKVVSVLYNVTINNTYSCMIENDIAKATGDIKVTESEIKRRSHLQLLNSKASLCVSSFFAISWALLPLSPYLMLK


Experiments:
[1] = biological target: T2, Human CD40 ECD protein (mouse IgG2a Fc tag) (human, UniProt P25942 21-193); assay: bridging ELISA, coated B7H4, soluble CD40 ECD-mFc
T2 construct: extracellular domain; also called Human CD40-msFc; human recombinant CD40; not shown: mouse IgG2a Fc tag
T2 sequence (P25942 21-193): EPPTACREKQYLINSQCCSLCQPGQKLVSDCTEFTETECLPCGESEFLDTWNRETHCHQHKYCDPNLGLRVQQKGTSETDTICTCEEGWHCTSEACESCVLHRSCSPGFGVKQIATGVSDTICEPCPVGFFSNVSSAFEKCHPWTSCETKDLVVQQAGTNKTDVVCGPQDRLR
Procedure: Anti-B7H4/CD40 bi-specific antibodies were analyzed by ELISA for their simultaneous binding to recombinant human B7H4 and human CD40. Briefly, human B7H4 protein was diluted and coated onto an ELISA plate with a volume of […] by incubation at 4° C. overnight. The next day, the plate was blocked by PBST-BSA buffer, then serially diluted samples of anti-B7H4/CD40 bi-specific antibodies were pipetted into appropriate wells at 50 μL/well, and the plate was incubated for 1 h followed by Washing. Human CD40 ECD protein (mouse IgG2a Fc tag) was added into the plate at 50 μL/well. After 1-hour incubation at room temperature, HRP-conjugated anti-mouse IgG (H+L) antibody was added into the plate at 100 μL/well. The plate was incubated for 1 hour at room temperature followed by washing. TMB substrate solution was added at 100 μL/well and the color development was stopped by adding 100 uL/well Stop Solution (2N H2SO4). Absorbance at 450 nm and 620 nm was read by Tecan F200 Pro plate reader. GraphPad 7.0, “[Agonist] vs. response—Variable slope (four parameters)” was used to plot the binding data and calculate binding EC50 values.

[2] = biological target: T3, human CD40 expressed on CHO cells (human, UniProt P25942 21-277); assay: FACS, CHO cells
T3 construct: whole, on cells; also used for the reporter cells over-expressing human CD40; also called cellular CD40; CHO-CD40 cells
T3 sequence (P25942 21-277): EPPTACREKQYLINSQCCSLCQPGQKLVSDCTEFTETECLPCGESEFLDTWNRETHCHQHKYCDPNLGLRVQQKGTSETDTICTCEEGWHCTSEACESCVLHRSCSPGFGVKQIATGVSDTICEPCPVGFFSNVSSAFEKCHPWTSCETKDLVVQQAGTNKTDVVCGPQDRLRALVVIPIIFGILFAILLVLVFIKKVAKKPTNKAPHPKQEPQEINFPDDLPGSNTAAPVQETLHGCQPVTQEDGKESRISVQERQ

[3] = biological target: T1, human B7H4 expressed on CHO cells; assay: FACS, CHO cells
[4] = biological target: T4, Ly090 (human CD40 ECD protein with His tag) (human, UniProt P25942 21-193); assay: bridging ELISA, coated CD40 ECD-His, soluble PD-L1 ECD-mFc
T4 construct: extracellular domain; also called human CD40 ECD protein (His tag); recombinant human CD40; not shown: His tag
T4 sequence (P25942 21-193): as the sequence (P25942 21-193) above
Procedure: Exemplary anti-PD-L1/CD40 bi-specific antibodies were analyzed by ELISA for their simultaneous binding to recombinant human PD-L1 and human CD40. Briefly, Ly090 (human CD40 ECD protein with His tag) was diluted and coated onto an ELISA plate with a volume of 100 μL/well by incubation at 4° C. overnight. The next day, the plate was blocked by PBST-BSA buffer, then serially diluted samples of anti-PD-L1/CD40 bi-specific antibodies were pipetted into appropriate wells at 50 μL/well, and the plate was incubated for 1 h followed by Washing. Human PD-L1 ECD protein (mouse IgG2a Fc tag) was added into the plate at 50 μL/well. After 1-hour incubation at room temperature, HRP-conjugated anti-Mouse IgG, Fc G2a antibody was added into the plate at 100 μL/well. The plate was incubated for 1 hour at room temperature followed by washing. TMB substrate solution was added at 100 μL/well and the color development was stopped by adding 100 uL/well Stop Solution (2N H₂SO₄). Absorbance at 450 nm and 620 nm was read by Tecan F200 Pro plate reader. GraphPad 7.0, “[Agonist] vs. response—Variable slope (four parameters)” was used to plot the binding data and calculate binding EC50 values.

Binder | binding result [1] | binding result [2] | binding result [3] | binding result [4]
Ly475 (bispecific antibody, human IgG1, kappa, Ly361 HC (IgG1 mutated Fc)-TM740 scFv VH-VL + Ly361 LC) heavy: EVQLVESGGDLVKPGGSLKLSCAASGFTFSSYGMSWVRQTPDKRLEWVAAISTGGSYTYYPDSVKGRFTISRDTATNTLYLQMSTLKSEDTAMYYCTRRGATGSWFAYWGQGTLVTVSAASTKGPSVFPLAPSSKSTSGGTAALGCLVKDYFPEPVTVSWNSGALTSGVHTFPAVLQSSGLYSLSSVVTVPSSSLGTQTYICNVNHKPSNTKVDKKVEPKSCDKTHTCPPCPAPELLGPSVFLFPPKPKDTLMISRTPEVTCVVVDVSHEDPEVKFNWYVDGVEVHNAKTKPREEQYNSTYRVVSVLTVLHQDWLNGKEYKCKVSNKALPAPIEKTISKAKGQPREPQVYTLPPSREEMTKNQVSLTCLVKGFYPSDIAVEWESNGQPENNYKTTPPVLDSDGSFFLYSKLTVDKSRWQQGNVFSCSVMHEALHNHYTQKSLSLSPGGGGGSGGGGSGGGGSGGGGSQVQLVESGGGLVQPGGSLKLSCATSGFNFNDYFMNWVRQASGKGLEWVGQIRNKNYNYATYYTESLEGRVTISRDDSKNTAYLQMNSLKTEDTAVYYCTSYYYDGFADYFDYWGQGTTVTVSSGGGGSGGGGSGGGGSGGGGSDIQMTQSPSSLSASVGDRVTITCKASQNIYIYLNWYQQKPGKAPKLLIYNTNNLQTGVPSRFSGSGSGTDFTLTISSLQPEDFATYYCLQHSSRRTFGGGTKVEIK light: DILMTQSPSSMSVSLGDTVSITCHASQGINNNIGWLQRKPGKSFKGLIYHGTNLEDGVPSRFSGSGSGADYSLTISSLESEDFADYYCVQYVQFPRTFGGGTKLEIKRTVAAPSVFIFPPSDEQLKSGTASVVCLLNNFYPREAKVQWKVDNALQSGNSQESVTEQDSKDSTYSLSSTLTLSKADYEKHKVYACEVTHQGLSSPVTKSFNRGEC | binds | binds | binds | –
Ly478 (bispecific antibody, human IgG1, kappa, Ly361 HC (IgG1 mutated Fc)-TM559 (printed TM599) scFv VL-VH + Ly361 LC) heavy: EVQLVESGGDLVKPGGSLKLSCAASGFTFSSYGMSWVRQTPDKRLEWVAAISTGGSYTYYPDSVKGRFTISRDTATNTLYLQMSTLKSEDTAMYYCTRRGATGSWFAYWGQGTLVTVSAASTKGPSVFPLAPSSKSTSGGTAALGCLVKDYFPEPVTVSWNSGALTSGVHTFPAVLQSSGLYSLSSVVTVPSSSLGTQTYICNVNHKPSNTKVDKKVEPKSCDKTHTCPPCPAPELLGPSVFLFPPKPKDTLMISRTPEVTCVVVDVSHEDPEVKFNWYVDGVEVHNAKTKPREEQYNSTYRVVSVLTVLHQDWLNGKEYKCKVSNKALPAPIEKTISKAKGQPREPQVYTLPPSREEMTKNQVSLTCLVKGFYPSDIAVEWESNGQPENNYKTTPPVLDSDGSFFLYSKLTVDKSRWQQGNVFSCSVMHEALHNHYTQKSLSLSPGGGGGSGGGGSGGGGSGGGGSDIQMTQSPSSLSASVGDRVTITCLASEDISNDLAWYQQKPGKAPKLLIYFVDRLLDGVPSRFSGSGSGTDFTLTISSLQPEDFATYYCQQSYKYPPTFGQGTKLEIKGGGGSGGGGSGGGGSGGGGSEVQLVESGGGLVQPGGSLRLSCAASGFTFTNYGLHWVRQAPGKGLEWVSSISPSGGVTYYRDSVKGRFTISRDNSKNTLYLQMNSLRAEDTAVYYCAKPFLGWGGANWIAHWGQGTLVTVSS light: DILMTQSPSSMSVSLGDTVSITCHASQGINNNIGWLQRKPGKSFKGLIYHGTNLEDGVPSRFSGSGSGADYSLTISSLESEDFADYYCVQYVQFPRTFGGGTKLEIKRTVAAPSVFIFPPSDEQLKSGTASVVCLLNNFYPREAKVQWKVDNALQSGNSQESVTEQDSKDSTYSLSSTLTLSKADYEKHKVYACEVTHQGLSSPVTKSFNRGEC | binds | binds | binds | –
Ly479 (bispecific antibody, human IgG1, kappa, Ly361 HC-TM559 scFv VH-VL + Ly361 LC) heavy: EVQLVESGGDLVKPGGSLKLSCAASGFTFSSYGMSWVRQTPDKRLEWVAAISTGGSYTYYPDSVKGRFTISRDTATNTLYLQMSTLKSEDTAMYYCTRRGATGSWFAYWGQGTLVTVSAASTKGPSVFPLAPSSKSTSGGTAALGCLVKDYFPEPVTVSWNSGALTSGVHTFPAVLQSSGLYSLSSVVTVPSSSLGTQTYICNVNHKPSNTKVDKKVEPKSCDKTHTCPPCPAPELLGPSVFLFPPKPKDTLMISRTPEVTCVVVDVSHEDPEVKFNWYVDGVEVHNAKTKPREEQYNSTYRVVSVLTVLHQDWLNGKEYKCKVSNKALPAPIEKTISKAKGQPREPQVYTLPPSREEMTKNQVSLTCLVKGFYPSDIAVEWESNGQPENNYKTTPPVLDSDGSFFLYSKLTVDKSRWQQGNVFSCSVMHEALHNHYTQKSLSLSPGGGGGSGGGGSGGGGSGGGGSEVQLVESGGGLVQPGGSLRLSCAASGFTFTNYGLHWVRQAPGKGLEWVSSISPSGGVTYYRDSVKGRFTISRDNSKNTLYLQMNSLRAEDTAVYYCAKPFLGWGGANWIAHWGQGTLVTVSSGGGGSGGGGSGGGGSGGGGSDIQMTQSPSSLSASVGDRVTITCLASEDISNDLAWYQQKPGKAPKLLIYFVDRLLDGVPSRFSGSGSGTDFTLTISSLQPEDFATYYCQQSYKYPPTFGQGTKLEIK light: DILMTQSPSSMSVSLGDTVSITCHASQGINNNIGWLQRKPGKSFKGLIYHGTNLEDGVPSRFSGSGSGADYSLTISSLESEDFADYYCVQYVQFPRTFGGGTKLEIKRTVAAPSVFIFPPSDEQLKSGTASVVCLLNNFYPREAKVQWKVDNALQSGNSQESVTEQDSKDSTYSLSSTLTLSKADYEKHKVYACEVTHQGLSSPVTKSFNRGEC | binds | binds | binds | –
Ly482 (bispecific antibody, human IgG1, kappa, Ly361 HC (IgG1 mutated Fc)-Ly253 scFv VL-VH + Ly361 LC) heavy: not shown light: DILMTQSPSSMSVSLGDTVSITCHASQGINNNIGWLQRKPGKSFKGLIYHGTNLEDGVPSRFSGSGSGADYSLTISSLESEDFADYYCVQYVQFPRTFGGGTKLEIKRTVAAPSVFIFPPSDEQLKSGTASVVCLLNNFYPREAKVQWKVDNALQSGNSQESVTEQDSKDSTYSLSSTLTLSKADYEKHKVYACEVTHQGLSSPVTKSFNRGEC | binds | binds | binds | –
Ly483 (bispecific antibody, human IgG1, kappa, Ly361 HC (IgG1 mutated Fc)-Ly253 scFv VH-VL + Ly361 LC) heavy: not shown light: DILMTQSPSSMSVSLGDTVSITCHASQGINNNIGWLQRKPGKSFKGLIYHGTNLEDGVPSRFSGSGSGADYSLTISSLESEDFADYYCVQYVQFPRTFGGGTKLEIKRTVAAPSVFIFPPSDEQLKSGTASVVCLLNNFYPREAKVQWKVDNALQSGNSQESVTEQDSKDSTYSLSSTLTLSKADYEKHKVYACEVTHQGLSSPVTKSFNRGEC | binds | binds | binds | –
Ly345 (bispecific antibody, human IgG1, kappa, Ly076 HC (IgG1 mutated Fc) + Ly076 LC-Ly253 scFv VH-VL) heavy: QVQLVQSGAEVKKPGASVKVSCKASGYTFTDFWMSWVRQAPGQGLEWMGQIYPNTGTTHSNEKFKGRVTMTRDTSTSTVYMELSSLRSEDTAVYYCARSYHISTTPNWFAYWGQGTLVTVSSASTKGPSVFPLAPSSKSTSGGTAALGCLVKDYFPEPVTVSWNSGALTSGVHTFPAVLQSSGLYSLSSVVTVPSSSLGTQTYICNVNHKPSNTKVDKKVEPKSCDKTHTCPPCPAPELLGPSVFLFPPKPKDTLMISRTPEVTCVVVDVSHEDPEVKFNWYVDGVEVHNAKTKPREEQYNSTYRVVSVLTVLHQDWLNGKEYKCKVSNKALPAPIEKTISKAKGQPREPQVYTLPPSREEMTKNQVSLTCLVKGFYPSDIAVEWESNGQPENNYKTTPPVLDSDGSFFLYSKLTVDKSRWQQGNVFSCSVMHEALHNHYTQKSLSLSPG light: not shown | – | binds | – | binds
